The results in this text go back to US20210069342A1 (LEGOCHEM BIOSCIENCES, published 2021).

The target in assay [1] is T1, recombinant human ROR1-His (Sino Biological, 13968-H08H) (human, UniProt Q01973 30-406).
T1 construct: extracellular domain; Bought protein; also called ROR1-HIS protein; not shown: His tag
As to the kind of experiment: BLI (Octet), ROR1-His on Anti-Penta-His or AR2G biosensor, IgG 30 to 0.021 nM, 1:1 fit. As to the method:
A 96-well black microplate (greiner bio one) was mounted on a biosensor tray case, and 200 10×KB or DW was added to each of 8 wells. Then Anti Penta His biosensors or 8 AR2G biosensors (ForteBio, USA) were inserted to hydrate for 10 minutes. 600 of the assay samples were diluted 2-fold or 3-fold to the appropriate assay concentrations, using 1×KB or 10×KB to 30 to 0.021 nM. To immobilize the antigen, recombinant human ROR1-His (Sino Biological, 13968-H08H) was diluted to 1 /ML with 10×KB or Sodium Acetate pH5 buffer. Immobilization was fixed at a threshold of 0.3 nm in the loading step. The association assay was carried out for 3 to 10 minutes, and the dissociation assay was carried out for 20 minutes. According to the Octet program template, the buffer was placed in a new 96-well black microplate according to order. As Baseline1, 200 10×KB or DW was placed. Then 200 each of 1 /mL of the antigen to be loaded, the ROR1-HIS protein, was added. As Baseline2, 200 10×KB or 1×KB was placed. Then to each well 30 to 0.021 nM of the diluted antibody and 200 each of 10×KB buffer or 1×KB corresponding to a reference blank was added. The temperature of the test plate was fixed at 30° C. After all of the samples were introduced, the equipment was started, and after the assay was completed, results were uploaded to the Octet Analysis 90 software, with KD values analyzed through 1:1 fitting. By obtaining KD values through the Octet assay method, it was confirmed that the anti-ROR1 antibody had strong binding potential to ROR1 antigen.
On the technique in general: In BLI a coated tip is dipped into the sample, and binding shifts an interference pattern.

Assay [2] addresses T2, human ROR2 over-expressed on CHO cells (CHO-human ROR2) (human, UniProt Q01974 34-943).
T2 construct: whole, on cells; Negative control; also called family protein human ROR2
The assay is described as follows: flow cytometry on CHO-S cells transiently over-expressing human ROR2, FITC anti-human Fc detection, MFI ratio to 2nd Ab alone. The source says:
(§1) For this experiment, using cell lines (FIG. 5 and FIG. 7, respectively) transiently (CHO-human ROR1, CHO-human ROR2, CHO-mouse ROR1) or stably (MC38-human ROR1) transfected with ROR1 gene to achieve artificial over-expression of ROR1 protein, an ROR1-expressing cell line (JeKo-1, Mino) (FIG. 6), a non ROR1-expressing cell line (MCF7) (FIG. 6) and a FACSCalibur (BD Biosciences) device was used to measure the degree to which anti-ROR1 antibody and ROR1 were bound, as follows. […] JeKo-1, Mino, CHO-human ROR1, CHO-mouse ROR1 and MC38-human ROR1 are all cell lines which express human ROR1 or mouse ROR1.
(§2) Specifically, after dissociating each cell line and washing in PBS, the number of cells was counted and adjusted to 2×10⁵ cells/200 PBS. Then the respective ROR1 monoclonal antibodies prepared in Embodiment 3 were diluted 5 times from 10 /mL or 10 /mL, then reacted for 1 hour at 4° C. After the reaction, the cells were washed in PBS, then FITC-marked constant region (Fc) specific antibody (Goat anti-human IgG FITC conjugate, Fc specific, Sigma, F9512, concentration 20 mg/ml) was suspended in 2 /1×10⁵ cells/200 PBS and reacted for 1 hour at 4° C. As for identification of the degree of expression of the transiently over-expressed human ROR1, human ROR2 and mouse ROR1, a commercially available FACS analysis antibody (anti-ROR1: R&D Systems, FAB 2000G, anti-ROR2: R&D, FAB20641P) was used. After reacting the cells were washed in PBS and analyzed using a FACSCalibur device. The negative control (2nd Ab) was only treated with FITC-marked constant region (Fc) specific antibody. The shifted readings for the respective experimental groups treated with ROR1 monoclonal antibody were compared against the shifted reading for the control group (MFI Ratio: MFI of anti-ROR1/MFI of 2nd Ab).

Assay [3] deals with T3, human ROR1 expressed on the cell surface (human, UniProt Q01973 30-937).
T3 construct: whole, on cells; also called cell surface-expressed ROR1 antigen; ROR1 on JeKo-1, Mino, CHO-human ROR1, MC38-human ROR1 and other cancer cell lines
As to the kind of experiment: flow cytometry on MC38-human ROR1 cells, IgG titrated, FITC anti-human Fc detection, MFI ratio to 2nd Ab alone; log axis whose first tick is printed 0.
From the text: as §1, §2

Assay [4] deals with T4, recombinant mouse ROR1 protein (Acrobiosystems, RO1-M5221) (mouse, UniProt Q9Z139 30-403).
T4 construct: Bought protein; also called mouse ROR1 antigen
The assay is described as follows: ELISA, wells coated with recombinant mouse ROR1 protein, IgG titrated, HRP anti-Fab detection, OD (450-650nm). Here is the method: (§3) Anti-ROR1 antibody antigen binding affinity was assessed using an ELISA-based solution binding assay. Specifically, a 96-well microtiter plate (Nunc-Immuno Plates), NUNC) was coated for 16 hours at 4° C. with the ROR1 protein described below at a concentration of 1 in PBS solution, and non-specific binding sites were blocked for 2 hours with 3% BSA (bovine serum albumin). Here, the ROR1 protein used was, in the case of human ROR1, the ROR1-Fc or recombinant human ROR1-His (Sino Biological, 13968-H08H) of Embodiment 1. The ROR1-His used in ELISA, as stated in the above sentence, was a protein from the Sino Biological company (13968-H08H), and the ROR1-His of Embodiment 1 or recombinant mouse ROR1 protein was used (Acrobiosystems, RO1-M5221-100 )
(§4) Subsequently, the anti-ROR1 antibodies prepared in Embodiment 3 were added at the concentrations stated in FIG. 2 to a 96-well microtiter plate, and binding capacity was analyzed using ELISA as follows. Specifically, after incubating for 2 hours, the plate was washed 5 times with PBS containing 0.05% Tween 20, then HRP-conjugated Fab multiclonal antibody reagent (Perce, 31414) was diluted to 1:10,000 and placed in the washed microtiter plate. After reacting for 1 hour at 37° C., the ROR1 antibodies bonded to the plate were detected. After the reaction, color development was performed using TMB (Tetramethylbenzidine, Sigma, T0440). The enzymatic reaction was stopped using 0.5 mol/L sulfuric acid, and absorbance at 450 nm and 650 nm was measured (450 nm-650 nm) using a micro plate reader (Molecular Device)
For orientation: ELISA stands for enzyme-linked immunosorbent assay.

In assay [5] the target is T1, recombinant human ROR1-His (Sino …). As to the kind of experiment: ELISA, wells coated with human ROR1 protein (sheet: 'human ROR1'; text: ROR1-Fc or ROR1-His), IgG titrated, HRP anti-Fab detection, OD (450-650nm). Here is the method: as §3, §4
Assay [6] has the same target. The assay is described as follows: ELISA, wells coated with human ROR1 protein (sheet: 'human ROR1'; text: ROR1-Fc or ROR1-His), IgG titrated, OD(450nm-650nm); x axis 'conc(nM)' numbered -5 to 2 (log10). Here is the method: as §3, §4
Assay [7] concerns the target T5, mouse ROR1 over-expressed on CHO cells (CHO-mouse ROR1) (mouse, UniProt Q9Z139 30-937).
T5 construct: whole, on cells; also called cell surface-expressed mouse ROR1
The assay is described as follows: flow cytometry, CHO-mouse ROR1 cells.
From the text: as §1, §2
(A flow cytometer gives signals particle by particle.)

Assay [8] concerns the target T4, recombinant mouse ROR1 protein …. As to the kind of experiment: ELISA, IgG on coated mouse ROR1. As to the method: as §3
Subsequently, the anti-ROR1 antibodies prepared in Embodiment 3 were added at the concentrations stated in FIG. 2 to a 96-well microtiter plate, and binding capacity was analyzed using ELISA as follows. […] After reacting for 1 hour at 37° C., the ROR1 antibodies bonded to the plate were detected. […] The enzymatic reaction was stopped using 0.5 mol/L sulfuric acid, and absorbance at 450 nm and 650 nm was measured (450 nm-650 nm) using a micro plate reader (Molecular Device)

T4 sequence (Q9Z139 30-403 limits assumed): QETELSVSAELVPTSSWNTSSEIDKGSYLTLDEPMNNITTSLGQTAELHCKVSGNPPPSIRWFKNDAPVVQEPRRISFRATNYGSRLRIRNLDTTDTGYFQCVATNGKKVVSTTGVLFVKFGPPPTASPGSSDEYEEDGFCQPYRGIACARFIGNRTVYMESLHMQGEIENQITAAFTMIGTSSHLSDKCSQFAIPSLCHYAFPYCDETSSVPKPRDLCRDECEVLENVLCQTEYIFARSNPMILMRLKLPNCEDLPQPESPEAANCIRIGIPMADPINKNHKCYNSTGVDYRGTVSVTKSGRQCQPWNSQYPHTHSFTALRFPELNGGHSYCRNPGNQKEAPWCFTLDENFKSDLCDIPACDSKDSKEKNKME
T1 sequence (Q01973 30-406): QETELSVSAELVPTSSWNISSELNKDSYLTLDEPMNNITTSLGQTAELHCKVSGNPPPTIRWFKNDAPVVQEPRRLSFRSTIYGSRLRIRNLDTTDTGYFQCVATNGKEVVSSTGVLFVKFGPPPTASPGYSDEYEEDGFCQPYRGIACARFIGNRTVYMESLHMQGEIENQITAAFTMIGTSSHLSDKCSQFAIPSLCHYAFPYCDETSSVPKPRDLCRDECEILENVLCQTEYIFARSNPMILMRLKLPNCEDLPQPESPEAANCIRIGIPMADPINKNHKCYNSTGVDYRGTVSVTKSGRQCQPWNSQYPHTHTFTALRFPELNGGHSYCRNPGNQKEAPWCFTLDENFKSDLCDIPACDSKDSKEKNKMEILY
T3 sequence (Q01973 30-937): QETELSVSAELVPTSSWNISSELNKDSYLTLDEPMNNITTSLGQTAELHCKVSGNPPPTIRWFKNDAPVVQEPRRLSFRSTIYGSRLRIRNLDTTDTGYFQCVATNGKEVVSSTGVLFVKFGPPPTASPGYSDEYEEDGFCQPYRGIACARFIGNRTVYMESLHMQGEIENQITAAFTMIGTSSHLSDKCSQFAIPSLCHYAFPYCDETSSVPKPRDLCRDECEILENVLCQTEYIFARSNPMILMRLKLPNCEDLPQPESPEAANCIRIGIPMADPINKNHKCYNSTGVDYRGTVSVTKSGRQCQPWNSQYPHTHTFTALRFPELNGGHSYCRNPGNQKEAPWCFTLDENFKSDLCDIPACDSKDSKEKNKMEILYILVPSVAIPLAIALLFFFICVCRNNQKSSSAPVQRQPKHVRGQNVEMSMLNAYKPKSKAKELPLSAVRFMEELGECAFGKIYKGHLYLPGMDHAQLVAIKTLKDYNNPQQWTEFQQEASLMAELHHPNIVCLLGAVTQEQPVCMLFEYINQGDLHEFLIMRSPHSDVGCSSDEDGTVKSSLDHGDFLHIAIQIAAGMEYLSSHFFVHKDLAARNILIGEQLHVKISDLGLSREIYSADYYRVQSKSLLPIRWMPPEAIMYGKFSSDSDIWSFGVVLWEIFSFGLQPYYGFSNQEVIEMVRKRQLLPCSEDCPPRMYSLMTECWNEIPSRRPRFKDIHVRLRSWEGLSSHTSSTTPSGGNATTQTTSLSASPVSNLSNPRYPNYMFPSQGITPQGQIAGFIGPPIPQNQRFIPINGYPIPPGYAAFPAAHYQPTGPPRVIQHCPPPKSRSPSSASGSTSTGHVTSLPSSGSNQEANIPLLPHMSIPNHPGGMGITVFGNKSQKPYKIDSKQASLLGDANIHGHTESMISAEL
T2 sequence (Q01974 34-943): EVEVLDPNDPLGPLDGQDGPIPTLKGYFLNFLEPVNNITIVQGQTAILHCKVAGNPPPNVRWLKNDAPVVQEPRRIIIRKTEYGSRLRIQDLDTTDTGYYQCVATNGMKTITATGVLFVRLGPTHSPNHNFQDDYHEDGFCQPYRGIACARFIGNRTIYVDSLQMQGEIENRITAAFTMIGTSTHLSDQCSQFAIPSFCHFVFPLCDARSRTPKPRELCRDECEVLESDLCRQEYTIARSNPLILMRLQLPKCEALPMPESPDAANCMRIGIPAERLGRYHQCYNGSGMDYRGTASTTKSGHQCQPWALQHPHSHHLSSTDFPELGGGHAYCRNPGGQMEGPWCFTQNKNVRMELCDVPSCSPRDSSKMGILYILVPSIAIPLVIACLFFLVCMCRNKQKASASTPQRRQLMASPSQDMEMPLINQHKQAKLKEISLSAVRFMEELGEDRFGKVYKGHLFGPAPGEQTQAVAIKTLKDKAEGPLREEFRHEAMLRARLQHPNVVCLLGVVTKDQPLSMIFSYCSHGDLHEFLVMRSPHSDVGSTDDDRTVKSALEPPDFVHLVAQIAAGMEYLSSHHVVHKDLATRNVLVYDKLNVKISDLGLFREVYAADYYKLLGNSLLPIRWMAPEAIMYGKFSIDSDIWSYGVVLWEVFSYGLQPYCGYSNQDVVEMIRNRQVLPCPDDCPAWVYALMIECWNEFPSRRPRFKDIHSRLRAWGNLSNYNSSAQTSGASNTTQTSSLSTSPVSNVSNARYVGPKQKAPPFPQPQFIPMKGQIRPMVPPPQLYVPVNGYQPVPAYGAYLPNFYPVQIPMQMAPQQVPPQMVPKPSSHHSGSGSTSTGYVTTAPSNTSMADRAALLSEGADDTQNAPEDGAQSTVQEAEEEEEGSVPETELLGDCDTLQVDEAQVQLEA
T5 sequence (Q9Z139 30-937): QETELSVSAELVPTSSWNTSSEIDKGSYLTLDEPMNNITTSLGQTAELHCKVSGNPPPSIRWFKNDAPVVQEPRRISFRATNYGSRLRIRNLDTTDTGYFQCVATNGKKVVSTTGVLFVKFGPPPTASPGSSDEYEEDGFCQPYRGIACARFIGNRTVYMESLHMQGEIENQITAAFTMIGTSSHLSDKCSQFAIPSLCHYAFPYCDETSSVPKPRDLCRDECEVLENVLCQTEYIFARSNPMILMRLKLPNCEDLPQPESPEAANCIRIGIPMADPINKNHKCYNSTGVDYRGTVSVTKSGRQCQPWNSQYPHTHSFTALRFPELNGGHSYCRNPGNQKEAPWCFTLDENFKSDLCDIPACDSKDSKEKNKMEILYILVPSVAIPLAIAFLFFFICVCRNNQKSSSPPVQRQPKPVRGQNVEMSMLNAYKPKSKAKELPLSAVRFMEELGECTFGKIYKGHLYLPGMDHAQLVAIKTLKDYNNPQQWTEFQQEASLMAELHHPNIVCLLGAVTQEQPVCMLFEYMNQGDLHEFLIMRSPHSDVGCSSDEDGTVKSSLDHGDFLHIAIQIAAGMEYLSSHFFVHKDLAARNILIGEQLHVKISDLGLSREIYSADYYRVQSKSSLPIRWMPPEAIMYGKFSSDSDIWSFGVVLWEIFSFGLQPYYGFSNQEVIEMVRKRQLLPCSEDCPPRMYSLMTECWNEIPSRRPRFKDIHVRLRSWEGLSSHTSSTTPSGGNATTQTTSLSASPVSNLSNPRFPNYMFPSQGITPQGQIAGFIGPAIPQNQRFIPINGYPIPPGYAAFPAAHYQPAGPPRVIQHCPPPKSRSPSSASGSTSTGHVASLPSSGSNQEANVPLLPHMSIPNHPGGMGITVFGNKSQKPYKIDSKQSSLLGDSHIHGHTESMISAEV

B1: anti-ROR1 IgG antibody AB4 (antibody, V domains shown)
VH: EVQLLESGGGLVQPGGSLRLSCAASGFTFSSYDMSWVRQAPGKGLEWVSWISPDSGSIYYADSVKGRFTISRDNSKNTLYLQMNSLRAEDTAVYYCARPTGRFDYWGQGTLVTVSS
VL: QSVLTQPPSASGTPGQRVTISCSGSSSNIGNNNVNWYQQLPGTAPKLLIYYDNKRPSGVPDRFSGSKSGTSASLAISGLRSEDEADYYCGTWDASLSGYVFGGGTKLTVLG
notes: Full IgG form (human IgG1 constant region, lambda light chain), expressed in CHO-S cells
As usually defined, the Kd is the constant that tells how readily two partners part at equilibrium. The term koff denotes the first-order rate constant of dissociation. For orientation: kon means a measure of how fast the partners come together. As a reminder, the EC50 (read off the curve) is the concentration that produces a half-maximal response. As for B1, in assay [1], the Kd was found to be 0.0639 nM, the koff was found to be 0.000116 s⁻¹ and the kon came to 1.81e+06 M⁻¹ s⁻¹. Besides, the binding result in assay [2] was “no binding”. Moreover, the 50% effective concentration (EC50 (read off the curve)) in assay [3] is approximately 0.1 µg/mL. In addition, the “EC50 (read off the curve)” value in assay [4] was approximately 0.2 nM. Moreover, the “EC50 (read off the curve)” value in assay [5] was approximately 0.2 nM.

B2: anti-ROR1 IgG antibody A2F2 (antibody, V domains shown)
VH: EVQLLESGGGLVQPGGSLRLSCAASGFTFSDYYMSWVRQAPGKGLEWVSSISPDGSNTYYADSVKGRFTISRDNSKNTLYLQMNSLRAEDTAVYYCAKNLRAFDYWGQGTLVTVSS
VL: QSVLTQPPPASGTPGQRVTISCSGSSSNIGSNTVYWYQQLPGTAPKLLIYANSQRPSGVPDRFSGSKSGTSASLAISGLRSEDEADYYCGSWDYSLSGYVFGGGTKLTVLG
notes: as for B1
Regarding B2, in assay [1], the Kd was determined as 0.0773 nM. For the same molecule, in assay [1], the koff came to 0.000119 s⁻¹. Further, the kon in assay [1] stood at 1.53e+06 M⁻¹ s⁻¹. In addition, the binding result in assay [2] was “no binding”. Moreover, the “EC50 (read off the curve)” value in assay [3] was approximately 0.1 µg/mL; in assay [4], approximately 0.3 nM; in assay [6], approximately 0.04 nM; in assay [5], approximately 0.2 nM.

B3: anti-ROR1 IgG antibody D2B12 (antibody, V domains shown)
VH: EVQLLESGGGLVQPGGSLRLSCAASGFTFSNYDMSWVRQAPGKGLEWVSSISPSSGSSIYYADSVKGRFTISRDNSKNTLYLQMNSLRAEDTAVYYCAKAPGWCQAPSCYYDNAMDVWGQGTLVTVSS
VL: QSVLTQPPSASGTPGQRVTISCSGSSSNIGNNDVSWYQQLPGTAPKLLIYDDSQRPSGVPDRFSGSKSGTSASLAISGLRSEDEADYYCGAWDDSLSGYVFGGGTKLTVLG
notes: as for B1
Regarding B3, in assay [1], the Kd stood at 0.803 nM, the koff was 0.000361 s⁻¹ and the kon was 450000 M⁻¹ s⁻¹. Moreover, in assay [2], the binding result was “no binding”. Further, the half-maximal effective concentration (EC50 (read off the curve)) in assay [3] is approximately 0.2 µg/mL. Also, in assay [4], the “EC50 (read off the curve)” value was approximately 0.3 nM. Moreover, the “EC50 (read off the curve)” value in assay [5] is approximately 0.2 nM.

B4: anti-ROR1 IgG antibody A2F2 M1 (antibody, V domains shown)
VH: EVQLLESGGGLVQPGGSLRLSCAASGFTFSDYYMSWVRQAPGKGLEWVSSISPDASNTYYADSVKGRFTISRDNSKNTLYLQMNSLRAEDTAVYYCAKNLRAFDYWGQGTLVTVSS
VL: QSVLTQPPPASGTPGQRVTISCSGSSSNIGSNTVYWYQQLPGTAPKLLIYANSQRPSGVPDRFSGSKSGTSASLAISGLRSEDEADYYCGSWDYSLSGYVFGGGTKLTVLG
notes: as for B1
Turning to B4, the binding result in assay [7] and in assay [8] was “binds” each time. The “EC50 (read off the curve)” value in assay [6] was approximately 0.04 nM.

B5: anti-ROR1 IgG antibody BA6 M1 (antibody, V domains shown)
VH: EVQLLESGGGLVQPGGSLRLSCAASGFTFSNYDMSWVRQAPGKGLEWVSAIYHSGSSKYYADSVKGRFTISRDNSKNTLYLQMNSLRAEDTAVYYCARGGNAAWDTGFDYWGQGTLVTVSS
VL: QSVLTQPPSASGTPGQRVTISCSGSSSNIGSNDVSWYQQLPGTAPKLLIYYDNNRPSGVPDRFSGSKSGTSASLAISGLRSEDEADYYCGAWDDSLSGYVFGGGTKLTVLG
notes: as for B1
Regarding B5, the binding result in assay [7] and in assay [8] was “binds” throughout. Also, the “EC50 (read off the curve)” value in assay [6] is approximately 0.06 nM.

B6: anti-ROR1 IgG antibody A2F3 (antibody, V domains shown)
VH: EVQLLESGGGLVQPGGSLRLSCAASGFTFSSYDMSWVRQAPGKGLEWVSWISPGGGSKYYADSVKGRFTISRDNSKNTLYLQMNSLRAEDTAVYYCARVNGRFDYWGQGTLVTVSS
VL: QSVLTQPPSASGTPGQRVTISCSGSSSNIGNNNVSWYQQLPGTAPKLLIYADSHRPSGVPDRFSGSKSGTSASLAISGLRSEDEADYYCATWDYSLSGYVFGGGTKLTVLG
notes: as for B1
As for B6, in assay [1], the Kd amounted to 0.024 nM. For the same molecule, the koff in assay [1] was 3.31e-05 s⁻¹. In addition, in assay [1], the kon came to 1.38e+06 M⁻¹ s⁻¹. For the same molecule, the binding result in assay [2] was “no binding”. For the same molecule, the figures for the “EC50 (read off the curve)” value in assay [3], in assay [4] and in assay [5] were approximately 0.2 µg/mL, approximately 0.7 nM and approximately 0.6 nM, respectively.
